Source: article PMC2734569, “Functional mapping of the fission yeast DNA polymerase δ B-subunit Cdc1 by site-directed and random pentapeptide insertion mutagenesis” (BMC Molecular Biology, 2009)

Assays:
Experiment in all cases: two-hybrid; LexA-Cdc1 bait (pBTM116 or pBTM116BN) with Gal4-Pol3 prey and co-expressed c-myc-tagged Cdc27 (pAA-Cdc27) in S. cerevisiae CTY10-5d; ONPG liquid culture beta-galactosidase assay, mean of triplicates, as percent of wild-type Cdc1
Settings in all cases: partners not purified
Cdc1-E5 = biological target: T1, Cdc1-E5 (Schizosaccharomyces pombe, UniProt P87324 1-462, Val-MetGlyTyrProVal-Met)
T1 construct: Cdc1, S. pombe, with a pentapeptide inserted after residue 86; source: yeast two-hybrid fusion, in S. cerevisiae CTY10-5d
T1 sequence (looked up): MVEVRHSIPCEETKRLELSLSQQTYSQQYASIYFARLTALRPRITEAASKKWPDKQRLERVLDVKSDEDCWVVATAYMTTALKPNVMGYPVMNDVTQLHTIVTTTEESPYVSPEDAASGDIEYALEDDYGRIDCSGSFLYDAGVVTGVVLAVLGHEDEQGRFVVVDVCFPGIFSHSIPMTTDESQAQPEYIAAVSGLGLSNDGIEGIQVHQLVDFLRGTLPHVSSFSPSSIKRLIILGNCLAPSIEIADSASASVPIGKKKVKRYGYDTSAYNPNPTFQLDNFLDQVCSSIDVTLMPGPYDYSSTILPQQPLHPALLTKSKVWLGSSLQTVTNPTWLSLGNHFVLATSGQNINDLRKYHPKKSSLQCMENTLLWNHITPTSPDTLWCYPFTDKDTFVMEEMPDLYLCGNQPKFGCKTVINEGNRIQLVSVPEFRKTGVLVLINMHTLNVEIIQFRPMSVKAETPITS

Cdc1-A4 = biological target: T2, Cdc1-A4 (Schizosaccharomyces pombe, UniProt P87324 1-462, Pro303Ala)
T2 construct: Cdc1, S. pombe, point mutant; source: yeast two-hybrid fusion, in S. cerevisiae CTY10-5d
T2 sequence (looked up): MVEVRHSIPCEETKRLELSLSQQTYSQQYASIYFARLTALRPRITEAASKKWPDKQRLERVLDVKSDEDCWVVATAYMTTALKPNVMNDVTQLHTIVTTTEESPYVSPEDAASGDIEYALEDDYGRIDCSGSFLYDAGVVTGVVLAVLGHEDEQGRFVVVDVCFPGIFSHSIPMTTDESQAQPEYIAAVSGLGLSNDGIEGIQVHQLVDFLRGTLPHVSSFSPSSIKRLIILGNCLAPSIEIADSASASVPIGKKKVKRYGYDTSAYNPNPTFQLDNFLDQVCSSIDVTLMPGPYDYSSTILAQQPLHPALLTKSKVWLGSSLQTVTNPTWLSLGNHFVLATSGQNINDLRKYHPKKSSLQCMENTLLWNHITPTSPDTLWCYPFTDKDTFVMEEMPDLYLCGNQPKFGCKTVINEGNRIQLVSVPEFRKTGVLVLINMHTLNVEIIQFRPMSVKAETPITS

Cdc1-J9 = biological target: T3, Cdc1-J9 (Schizosaccharomyces pombe, UniProt P87324 1-462, Met-ArgGlyThrProMet-Thr)
T3 construct: Cdc1, S. pombe, with a pentapeptide inserted after residue 174; source: yeast two-hybrid fusion, in S. cerevisiae CTY10-5d
T3 sequence (looked up): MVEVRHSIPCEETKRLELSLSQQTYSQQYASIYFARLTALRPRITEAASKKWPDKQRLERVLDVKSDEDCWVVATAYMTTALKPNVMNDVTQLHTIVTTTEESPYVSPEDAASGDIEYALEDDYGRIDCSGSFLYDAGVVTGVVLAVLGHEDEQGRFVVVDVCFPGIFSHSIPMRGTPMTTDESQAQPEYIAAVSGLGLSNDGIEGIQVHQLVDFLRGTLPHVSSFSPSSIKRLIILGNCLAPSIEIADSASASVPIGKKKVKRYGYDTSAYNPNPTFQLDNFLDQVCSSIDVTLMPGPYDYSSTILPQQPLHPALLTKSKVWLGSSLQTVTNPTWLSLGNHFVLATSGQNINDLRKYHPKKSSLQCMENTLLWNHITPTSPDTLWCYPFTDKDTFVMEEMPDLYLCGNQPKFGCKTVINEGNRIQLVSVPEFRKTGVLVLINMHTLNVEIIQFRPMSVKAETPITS

Cdc1-J4 = biological target: T4, Cdc1-J4 (Schizosaccharomyces pombe, UniProt P87324 1-462, Ile-GlyValProArgIle-Asp)
T4 construct: Cdc1, S. pombe, with a pentapeptide inserted after residue 127; also called J5; J13; source: yeast two-hybrid fusion, in S. cerevisiae CTY10-5d
T4 sequence (looked up): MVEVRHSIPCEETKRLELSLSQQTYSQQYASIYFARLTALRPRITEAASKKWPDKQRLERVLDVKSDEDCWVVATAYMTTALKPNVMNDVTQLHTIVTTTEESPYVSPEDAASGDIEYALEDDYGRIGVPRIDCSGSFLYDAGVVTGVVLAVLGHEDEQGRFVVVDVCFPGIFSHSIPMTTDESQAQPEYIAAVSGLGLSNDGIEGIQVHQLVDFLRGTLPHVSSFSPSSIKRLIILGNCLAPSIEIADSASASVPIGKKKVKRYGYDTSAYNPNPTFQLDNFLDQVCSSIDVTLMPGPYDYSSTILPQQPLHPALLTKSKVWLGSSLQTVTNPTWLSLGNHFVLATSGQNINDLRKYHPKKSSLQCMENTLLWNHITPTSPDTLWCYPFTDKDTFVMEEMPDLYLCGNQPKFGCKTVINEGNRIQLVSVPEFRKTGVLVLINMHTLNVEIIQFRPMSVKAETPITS

- two-hybrid beta-galactosidase activity, % of wild-type Cdc1 (Cdc1-E5): 48%
- two-hybrid beta-galactosidase activity, % of wild-type Cdc1 (Cdc1-A4): < 1%
- two-hybrid beta-galactosidase activity, % of wild-type Cdc1 (Cdc1-J9): 91%
- two-hybrid beta-galactosidase activity, % of wild-type Cdc1 (Cdc1-J4): 36%
B1: Pol3 (fission yeast DNA polymerase delta catalytic subunit) (natural protein, Schizosaccharomyces pombe, UniProt P30316 1-1086, looked up)
chain: MTDRSSNEGVVLNKENYPFPRRNGSIHGEITDVKRRRLSERNGYGDKKGSSSKEKTSSFEDELAEYASQLDQDEIKSSKDQQWQRPALPAINPEKDDIYFQQIDSEEFTEGSVPSIRLFGVTDNGNSILVHVVGFLPYFYVKAPVGFRPEMLERFTQDLDATCNGGVIDHCIIEMKENLYGFQGNEKSPFIKIFTTNPRILSRARNVFERGEFNFEELFPVGVGVTTFESNTQYLLRFMIDCDVVGMNWIHLPASKYQFRYQNRVSNCQIEAWINYKDLISLPAEGQWSKMAPLRIMSFDIECAGRKGVFPDPSIDPVIQIASIVTQYGDSTPFVRNVFCVDTCSQIVGTQVYEFQNQAEMLSSWSKFVRDVDPDVLIGYNICNFDIPYLLDRAKSLRIHNFPLLGRIHNFFSVAKETTFSSKAYGTRESKTTSIPGRLQLDMLQVMQRDFKLRSYSLNAVCSQFLGEQKEDVHYSIITDLQNGTADSRRRLAIYCLKDAYLPQRLMDKLMCFVNYTEMARVTGVPFNFLLARGQQIKVISQLFRKALQHDLVVPNIRVNGTDEQYEGATVIEPIKGYYDTPIATLDFSSLYPSIMQAHNLCYTTLLDSNTAELLKLKQDVDYSVTPNGDYFVKPHVRKGLLPIILADLLNARKKAKADLKKETDPFKKAVLDGRQLALKVSANSVYGFTGATNGRLPCLAISSSVTSYGRQMIEKTKDVVEKRYRIENGYSHDAVVIYGDTDSVMVKFGVKTLPEAMKLGEEAANYVSDQFPNPIKLEFEKVYFPYLLISKKRYAGLFWTRTDTYDKMDSKGIETVRRDNCPLVSYVIDTALRKMLIDQDVEGAQLFTKKVISDLLQNKIDMSQLVITKALSKTDYAAKMAHVELAERMRKRDAGSAPAIGDRVAYVIIKGAQGDQFYMRSEDPIYVLENNIPIDAKYYLENQLSKPLLRIFEPILGEKASSLLHGDHTRTISMAAPSVGGIMKFAVKVETCLGCKAPIKKGKTALCENCLNRSAELYQRQVAQVNDLEVRFARLWTQCQRCQGSMHQDVICTSRDCPIFYMRIAEHKKLQQSVDLLKRFDEMSW
notes: DNA polymerase delta catalytic subunit Pol3, S. pombe; prey plasmid named pACT-Pol3 in the results and pGAD2F-Pol3 in the methods; also called Gal4-Pol3; pACT-Pol3; source: yeast two-hybrid fusion, in S. cerevisiae CTY10-5d
